What was measured:
3×MBT domain of L3MBTL1 = assay: Triple SILAC pull-down, 3xMBT/3xMBTD355N ratio (cytoplasmic, nuclear and chromatin fractions of 293T cells); assay type: binding, human; conditions: SILAC ratio; for 3xMBT/D355N UNC Heavy / 3xMBT/D355N UNC Light: pull-down 3xMBT vs 3xMBTD355N; for 3xMBT/D355N UNC Heavy: experiment with UNC0638 in heavy SILAC media; for 3xMBT/D355N UNC Light: experiment with UNC0638 in light SILAC media; for Protein Ratios 3xMBT/D355N: pull-down by 3xMBT vs 3xMBTD355N, 293T cells;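 on all read-outs here: proteins quantified with MaxQuant, requiring at least two unique peptides and quantification in both label directions, normalized to the mean of proteins from a digested loading control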
G9a and GLP = biological target: T1, G9a and GLP (Homo sapiens, UniProt Q96KQ7+Q9H9B1); assay: Triple SILAC pull-down after UNC0638 treatment of 293T cells, DMSO/UNC0638 ratio of protein captured by 3×MBT; assay type: cell-based; conditions: for Relative to UNC0638 UNC Heavy / Relative to UNC0638 UNC Light: SILAC ratio DMSO/UNC0638 of protein pulled down with 3xMBT; for Relative to UNC0638 UNC Heavy: UNC0638 in heavy SILAC media; for Relative to UNC0638 UNC Light: UNC0638 in light SILAC media; for Protein Ratios DMSO/UNC0638: SILAC ratio of protein captured by 3xMBT, 293T cells treated 24 hours with UNC0638 at 2.5 μM or DMSO; for Relative to UNC0638 Average: average of UNC Light and UNC Heavy experiments; for Candidate G9a/GLP target: reduced association with 3xMBT after UNC0638 treatment;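 on all read-outs here: mass spectrometry (Q-Exactive) SILAC quantitation, DMSO/UNC0638 ratio computed after subtracting 3×MBTD355N mutant pull-down background, only proteins with at least twofold 3×MBT over mutant signal considered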
T1 construct: endogenous in cells; host or cells: HEK 293T
T1 sequence (Q96KQ7 2-1210 limits assumed): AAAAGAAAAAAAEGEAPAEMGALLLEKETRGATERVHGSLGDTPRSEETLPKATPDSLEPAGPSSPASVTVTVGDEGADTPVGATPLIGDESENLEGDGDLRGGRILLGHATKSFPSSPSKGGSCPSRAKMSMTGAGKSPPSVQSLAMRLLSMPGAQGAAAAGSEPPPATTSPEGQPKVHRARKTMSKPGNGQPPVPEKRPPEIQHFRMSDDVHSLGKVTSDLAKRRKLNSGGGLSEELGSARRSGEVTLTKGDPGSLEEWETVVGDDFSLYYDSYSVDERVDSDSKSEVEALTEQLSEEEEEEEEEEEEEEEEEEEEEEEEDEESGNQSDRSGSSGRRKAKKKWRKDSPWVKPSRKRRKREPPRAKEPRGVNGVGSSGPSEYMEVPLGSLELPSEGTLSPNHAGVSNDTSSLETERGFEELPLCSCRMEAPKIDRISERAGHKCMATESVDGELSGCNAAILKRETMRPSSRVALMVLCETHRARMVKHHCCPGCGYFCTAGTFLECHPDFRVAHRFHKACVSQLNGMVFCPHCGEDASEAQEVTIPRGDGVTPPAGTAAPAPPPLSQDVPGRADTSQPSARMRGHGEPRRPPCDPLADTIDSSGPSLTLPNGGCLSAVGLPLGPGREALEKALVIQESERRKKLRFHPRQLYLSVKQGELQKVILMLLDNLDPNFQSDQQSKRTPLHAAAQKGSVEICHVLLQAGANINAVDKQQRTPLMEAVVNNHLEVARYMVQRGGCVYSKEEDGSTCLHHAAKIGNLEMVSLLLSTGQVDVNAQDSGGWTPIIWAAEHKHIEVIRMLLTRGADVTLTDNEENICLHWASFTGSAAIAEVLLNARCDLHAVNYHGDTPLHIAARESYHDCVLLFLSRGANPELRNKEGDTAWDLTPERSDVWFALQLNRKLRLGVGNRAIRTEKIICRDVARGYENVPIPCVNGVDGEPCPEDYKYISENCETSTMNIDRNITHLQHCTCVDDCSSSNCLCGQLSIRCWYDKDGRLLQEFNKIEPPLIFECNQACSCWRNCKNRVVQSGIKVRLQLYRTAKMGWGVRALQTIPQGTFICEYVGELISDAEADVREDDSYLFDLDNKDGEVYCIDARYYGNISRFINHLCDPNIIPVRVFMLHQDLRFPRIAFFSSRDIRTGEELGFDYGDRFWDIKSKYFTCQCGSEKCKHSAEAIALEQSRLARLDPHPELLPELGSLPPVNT
T1 sequence (Q9H9B1 2-1298 limits assumed): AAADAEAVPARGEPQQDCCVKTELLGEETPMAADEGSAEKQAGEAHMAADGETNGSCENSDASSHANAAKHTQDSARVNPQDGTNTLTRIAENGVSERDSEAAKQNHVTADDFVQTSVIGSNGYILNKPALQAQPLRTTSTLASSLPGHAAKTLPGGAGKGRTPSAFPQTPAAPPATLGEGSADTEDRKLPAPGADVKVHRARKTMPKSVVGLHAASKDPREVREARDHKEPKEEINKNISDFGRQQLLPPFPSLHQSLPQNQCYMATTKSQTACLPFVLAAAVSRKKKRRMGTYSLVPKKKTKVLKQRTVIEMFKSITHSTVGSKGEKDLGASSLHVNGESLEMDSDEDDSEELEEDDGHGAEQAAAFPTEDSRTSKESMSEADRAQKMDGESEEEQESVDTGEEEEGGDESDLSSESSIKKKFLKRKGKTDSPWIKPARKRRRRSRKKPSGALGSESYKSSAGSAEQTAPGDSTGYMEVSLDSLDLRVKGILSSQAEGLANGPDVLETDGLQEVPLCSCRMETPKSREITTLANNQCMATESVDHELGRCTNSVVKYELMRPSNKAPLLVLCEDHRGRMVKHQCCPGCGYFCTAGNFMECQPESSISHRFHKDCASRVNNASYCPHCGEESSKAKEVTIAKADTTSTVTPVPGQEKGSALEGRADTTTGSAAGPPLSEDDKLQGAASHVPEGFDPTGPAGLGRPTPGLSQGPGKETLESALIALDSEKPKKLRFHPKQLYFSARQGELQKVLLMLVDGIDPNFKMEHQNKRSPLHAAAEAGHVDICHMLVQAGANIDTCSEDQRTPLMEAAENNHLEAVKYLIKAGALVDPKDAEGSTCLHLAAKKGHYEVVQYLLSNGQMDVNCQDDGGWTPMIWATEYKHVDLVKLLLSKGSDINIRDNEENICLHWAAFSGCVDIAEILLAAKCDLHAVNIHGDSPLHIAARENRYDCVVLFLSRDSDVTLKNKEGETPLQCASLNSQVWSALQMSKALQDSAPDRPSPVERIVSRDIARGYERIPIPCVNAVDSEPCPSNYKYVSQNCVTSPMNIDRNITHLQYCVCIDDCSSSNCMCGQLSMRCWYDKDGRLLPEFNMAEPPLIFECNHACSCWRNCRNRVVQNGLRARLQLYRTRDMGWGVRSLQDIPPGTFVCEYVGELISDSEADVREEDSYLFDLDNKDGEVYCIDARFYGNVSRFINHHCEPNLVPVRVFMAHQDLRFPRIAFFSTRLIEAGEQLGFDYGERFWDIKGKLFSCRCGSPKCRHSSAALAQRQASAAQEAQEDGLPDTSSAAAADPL

Relative to UNC0638 UNC Heavy (G9a and GLP) [log base 2] | Relative to UNC0638 UNC Light (G9a and GLP) [log base 2] | Protein Ratios DMSO/UNC0638 (G9a and GLP) | Relative to UNC0638 Average (G9a and GLP) [log base 2] | Candidate G9a/GLP target (G9a and GLP) | Substance | 3xMBT/D355N UNC Heavy (3×MBT domain of L3MBTL1) [log base 2] | 3xMBT/D355N UNC Light (3×MBT domain of L3MBTL1) [log base 2] | Protein Ratios 3xMBT/D355N (3×MBT domain of L3MBTL1)
0.83 | 1.06 | 1.9 | 0.95 | ✓ | DNA ligase 1 | 3.18 | 1.96 | 5.9
0.12 | 0.10 | – | 0.11 | – | MCM7: protein with methylated lysine identified in 3xMBT pull-down | 2.23 | 2.52 | –
0.18 | 0.06 | – | 0.12 | – | MSH6: protein with methylated lysine identified in 3xMBT pull-down | 2.51 | 2.41 | –
0.83 | 0.29 | 1.5 | 0.56 | ✓ | Protein Wiz | 0.93 | 2.02 | 2.7
0.25 | 0.29 | – | 0.27 | – | RBM25: protein with methylated lysine identified in 3xMBT pull-down | 2.41 | 2.28 | –
0.00 | 0.26 | – | 0.13 | – | SSRP1: protein with methylated lysine identified in 3xMBT pull-down | 4.47 | 4.11 | –
